Target: the molecule itself
Test: native MS; non-activating native electrospray on a Q Exactive UHMR; 200 mM ammonium acetate pH 6.9; 5 μM ADH, 10 μM β-gal, 8 μM ferritin, 5 μM GroEL (concentrations of the most abundant oligomers)

B1: apoferritin (natural protein, UniProt P02791 1-175, looked up)
chain: MSSQIRQNYSTEVEAAVNRLVNLYLRASYTYLSLGFYFDRDDVALEGVCHFFRELAEEKREGAERLLKMQNQRGGRALFQDLQKPSQDEWGTTLDAMKAAIVLEKSLNQALLDLHALGSAQADPHLCDFLESHFLDEEVKLIKKMGDHLTNIQRLVGSQAGLGEYLFERLTLKHD
notes: ferritin, Sigma Aldrich F4503-25MG; The sample held both apo- and holoferritin, and the 24-mer of apoferritin was selected by mass; PDB 7A6A, used for comparison of shapes, may be a recombinant ferritin of another species or chain; also called apo/holo-ferritin; source: bought: Sigma Aldrich (F4503-25MG), saline stock solution, used without further purification; desalted into 200 mM ammonium …
For B1, the “stoichiometry N” value was 24.

B2: alcohol dehydrogenase (enzyme)
chain: MSIPETQKGVIFYESHGKLEYKDIPVPKPKANELLINVKYSGVCHTDLHAWHGDWPLPVKLPLVGGHEGAGVVVGMGENVKGWKIGDYAGIKWLNGSCMACEYCELGNESNCPHADLSGYTHDGSFQQYATADAVQAAHIPQGTDLAQVAPILCAGITVYKALKSANLMAGHWVAISGAAGGLGSLAVQYAKAMGYRVLGIDGGEGKEELFRSIGGEVFIDFTKEKDIVGAVLKATDGGAHGVINVSVSEAAIEASTRYVRANGTTVLVGMPAGAKCCSDVFNQVVKSISIVGSYVGNRADTREALDFFARGLVKSPIKVVGLSTLPEIYEKMEKGQIVGRYVVDTSK
notes: alcohol dehydrogenase (ADH), Sigma Aldrich A7011-15KU; native tetramer selected by mass; also called ADH; source: bought: Sigma Aldrich (A7011-15KU), used without further purification; desalted into 200 mM ammonium acetate
With B2 the “stoichiometry N” value was 4.

From PMC9641999, “Cryo-EM samples of gas-phase purified protein assemblies using native electrospray ion-beam deposition” (Faraday discussions, 2022)
